Assay results published in patent publication US20260132208A1 (DOMAIN THERAPEUTICS, published 2026).

Legend:
human CCR8 [1] = target: T1, human CCR8 (human, UniProt P51685 1-355); test: cell-based or functional assay
human CCR8 [2] = target: T1, human CCR8; test: cell-based or functional assay; remark: listed apart in the source
pm1 = target: T2, pm1 (sulfated tyrosine(s) among Y15, Y16, Y17; which ones is not told (the underlining of Table 1 is lost in the text)); test: ELISA on coated peptide [cont.]
T2 construct: also called sulfated CCR8 N-terminal peptide pm1
T2 sequence (peptide, as listed by the source): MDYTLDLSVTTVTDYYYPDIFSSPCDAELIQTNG
Outline: (§1)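 CCR8-related peptides were coated at 500 ng/ml in carbonate/bicarbonate buffer, and each anti-CCR8 mAb was applied at 1 μg/mL and then at a 1/10 dilution. After 90 min at room temperature and washing, TMB was developed for 15 min and optical density was taken as mAb reactivity.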

pm3 = target: T3, pm3 (Y17 sulfated; Y15 and Y16 not sulfated); test: ELISA on coated peptide [cont.]
T3 construct: also called sulfated CCR8 N-terminal peptide pm3
T3 sequence (peptide, as listed by the source): as above
Outline: as §1

pm4 = target: T4, pm4 (sulfated tyrosine(s) among Y15, Y16, Y17; which ones is not told (the underlining of Table 1 is lost in the text)); test: ELISA on coated peptide [cont.]
T4 construct: also called sulfated CCR8 N-terminal peptide pm4
T4 sequence (peptide, as listed by the source): as above
Outline: as §1

pm5 = target: T5, pm5 (Y15 and Y17 sulfated; Y16 not sulfated); test: ELISA on coated peptide [cont.]
T5 construct: also called sulfated CCR8 N-terminal peptide pm5
T5 sequence (peptide, as listed by the source): as above
Outline: as §1

pm6 = target: T6, pm6 (Y16 and Y17 sulfated; Y15 not sulfated); test: ELISA on coated peptide [cont.]
T6 construct: also called sulfated CCR8 N-terminal peptide pm6
T6 sequence (peptide, as listed by the source): as above
Outline: as §1

pm8 = target: T7, pm8 (Y15, Y16 and Y17 sulfated); test: ELISA on coated peptide [cont.]
T7 construct: also called sulfated CCR8 N-terminal peptide pm8
T7 sequence (peptide, as listed by the source): as above
Outline: as §1

[3] = target: T8, human CCR8 with a SNAP-tag at the N-terminus (human, UniProt P51685 1-355, SNAP-tag labelled covalently with Lumi4-Terbium); test: cell-based or functional assay
[4] = target: T8, human CCR8 with a SNAP-tag at the …; test: HTRF Tag-lite, inhibition of hCCL1-AF647 binding to SNAP-hCCR8 on HEK-293 cells
Procedure: The inhibition of CCL1 binding to hCCR8 was evaluated with the Tag-Lite® technology from Cisbio (Revvity). Human CCR8 is engineered with a SNAP-tag at the N-terminus of the GPCR. hCCR8 SNAP-tag is transiently transfected on HEK-293 cell line using FuGene® (Promega, Madison, WI, USA). 48 hours after transfection, cells are labeled with the substrate Lumi4-Terbium® (Cisbio, Codolet, France) which covalently reacts with the SNAP-tag, for 1 h at 37° C. Thawed or freshly labeled cells are plated in a 384 low volume white plate (GREINER Bio-One, Courtaboeuf, France) (10000 cells/well/10 μl). […] The Kd was previously obtained in a saturation binding assay on the same cells. […] The plate is next incubated at 21° C. for 2 h. Detection of HTRF signal is performed on the multiplate reader EnVision (PerkinElmer, Waltham, MA, USA). The HTRF (665/620) ratio is calculated by EnVision software, the data exported are considered as the total binding. The specific binding is calculated then by subtracting the non-specific signal from the total binding. The Ki and IC₅₀ are calculated using the “One site-Fit Ki” and “One site-FitlogIC50” from GraphPad Prism 9 (Graphpad Software, San Diego, CA, USA), respectively.

human CCR8 [5] = target: T1, human CCR8; test: cell-based or functional assay; remark: listed apart in the source
human CCR8 [6] = target: T1, human CCR8; test: flow cytometry, hCCR8-transfected CHO-K1 cells
Procedure: The same staining protocol was applied on human CCR8 transfected CHO cell line versus wild type CHO cell line, cutaneous T cell lymphoma HUT78 cell line and human activated T cell model.
Briefly, 1.10⁵ cells per well in a 96 well plate were incubated with a dilution of unconjugated anti-CCR8 mAb at 10 μg/mL then diluted at 1/3.33, 4 dilution points (during 30 min at 4° C.). […] Subsequently, cells are centrifuged (5 min at 400 g) and bound antibody is detected with F(ab′)2-Goat anti-Mouse IgG (H+L) Cross-Adsorbed Secondary Antibody, Alexa Fluor 488 (dilution 1/500) (Invitrogen by Thermofisher Scientific, Illkirch-Graffenstaden, France) or with F(ab′)₂-Goat anti-Human IgG Fc Secondary Antibody, PE (Invitrogen by Thermofisher Scientific, Illkirch-Graffenstaden, France) (dilution 1/1000) at 4° C. for 30 min. […] Bound detection antibody is quantified on a MacsQuant16 (Miltenyi, Gladbach, Germany) (B1 or B2 channel, 5000 events per acquisition). […] EC50 values were determined via nonlinear fit “log (agonist) vs.response—Variable slope (four parameters)” function of Graphpad prism. EC50 values were not constantly determined in the same experiments.

B1: anti-CCR8 mAb 1-20 (antibody, human IgG1, kappa)
heavy: not shown
light: DIVMTQAAPSLSVTPGESASISCTSSKSLLHSNGNTYLYWFLQKPGQSPQLLIYRMSNLASGVPDRFSGSGSGTAFTLKISRVEAEDVGVYYCMQHREYPFTFGSGTKLEIKRTVAAPSVFIFPPSDEQLKSGTASVVCLLNNFYPREAKVQWKVDNALQSGNSQESVTEQDSKDSTYSLSSTLTLSKADYEKHKVYACEVTHQGLSSPVTKSFNRGEC
notes: Humanized mAb, human IgG1 / kappa
Question: With B1 as the binder, how does the “extrapolated top plateau of hCCL1 curve with 5 µg/mL mAb, protocol #3” value (human CCR8 [1]) read?
Answer: 517000 % of hCCL1 (100 nM)

Question: And the “IC50 (read off the curve), inhibition of hCCL1 induced Gi2 signaling, No Wash-out” value (human CCR8 [2])?
Answer: ~0.02 µg/mL

Question: And the “IC50 (read off the curve), inhibition of hCCL1 induced Gi2 signaling, Wash-out (6 h)” value (human CCR8 [2])?
Answer: ~0.06 µg/mL

Question: Does B1 bind (pm1)?
Answer: binds

Question: Does B1 bind (pm3)?
Answer: binds

Question: Does B1 bind (pm4)?
Answer: binds

Question: Does B1 bind (pm5)?
Answer: binds

Question: Does B1 bind (pm6)?
Answer: binds

Question: Does B1 bind (pm8)?
Answer: binds

B2: anti-CCR8 mAb 1-22 (antibody, human IgG1, kappa, V domains shown)
VH: EVQLLESGGGLVQPGGSLRLSCAASGFTFNAYAMNWVRQAPGKGLEWVARIRSKSNDYATYYGDSVKGRFTISRDNSKNTLYLQMNSLRAEDTAVYYCVRGREAYYRYDGGYYAMDVWGQGTTVTVSS
VL: DIVMTQSPLSLPVTPGEPASISCRSSKSLLHSNGNTYLYWFLQKPGQSPQLLIYRVSNLASGVPDRFSGSGSGTDFTLKISRVEAEDVGVYYCMQHREYPFTFGQGTKLEIKR
notes: as for B1
Question: What does the source list for B2?
Answer: extrapolated top plateau of hCCL1 curve with 5 µg/mL mAb, protocol #3 (human CCR8 [1]): 76400 % of hCCL1 (100 nM); % hCCR8 internalization with CCL1 300 nM, mAb 1 µg/ml (HTRF) [3]: 139%; % hCCR8 internalization with CCL1 300 nM, mAb 10 µg/ml (HTRF) [3]: 52%; binding result (pm1): binds; binding result (pm3): binds; binding result (pm4): binds; binding result (pm5): binds; binding result (pm6): binds; binding result (pm8): binds; IC50 [4]: 0.1 to 1 nM

B3: anti-CCR8 mAb 1-25 (antibody, human IgG1, kappa, V domains shown)
VH: QVQLVESGGGVVQPGRSLRLSCAASGFTFSNYRMHWVRQAPGKGLEWIAVIKVKSDNYGANYADSVKGRFTISRDNSKNTLYLQMNSLRAEDTAVYYCSSPTYPGSSGFAYWGQGTLVTVSS
VL: DIQMTQSPSSLSASVGDRVTITCRASQDISNYLNWYQQKPDGTVKLLIYYTSRLHTGVPSRFSGSGSGTDYTLTISNLQQEDIATYFCQQGNKFPPTFGGGTKVEINR
notes: as for B1
Question: For B3, which “ADCC % max lysis, HUT78 targets, NK donor 3” value (human CCR8 [5]) is on record?
Answer: 16%

Question: And the “ADCC % max lysis, HUT78 targets, NK donor 4” value (human CCR8 [5])?
Answer: 19%

Question: And the “ADCC EC50, HUT78 targets, NK donor 3” value (human CCR8 [5])?
Answer: 0.349 nM

Question: And the “ADCC EC50, HUT78 targets, NK donor 4” value (human CCR8 [5])?
Answer: 1.91 nM

Question: What about the EC50 (human CCR8 [6]) of the same binder?
Answer: 0.1 nM
